How the values were obtained:
ROBO1 [1] = biological target: ROBO1 (UniProt Q9Y6N7); experiment: ITC, ROBO1 titrated into B5209B mouse-scFv-mcSA414 (3.7 µM), 25° C., PBS
ROBO1 [2] = biological target: ROBO1 (UniProt Q9Y6N7); experiment: ITC, ROBO1 titrated into B5209B mouse-scFv-mcSA414 (3.7 µM), 25° C., PBS; ITC, 25 C, PBS, ROBO1 titrated into the scFv-mcSA414 tetramer (3.7 uM)
ROBO1 [3] = biological target: ROBO1 (UniProt Q9Y6N7); experiment: ITC, compared with the scFv alone
ROBO1 [4] = biological target: ROBO1 (UniProt Q9Y6N7); experiment: ITC, one-site model (OneSites): ROBO1 injected into B5209B mouse-scFv-mcSA414 (3.7 uM) at 25 C in PBS

binding ratio (molecules of ROBO1 per tetramer) (ROBO1 [1]): 2
enthalpy change (ΔH) (ROBO1 [1]): -3.85 kcal/mol
entropy change (ΔS) (ROBO1 [1]): -22 J/mol·K
Kd (ROBO1 [2]): 33 nM
reduction in affinity compared with scFV (ROBO1 [3]): 10 fold
ΔS value relative to scFV (ratio to scFV) (ROBO1 [3]): 0.025
N (fitted stoichiometry, ROBO1 per scFv-mcSA414 in the cell) (ROBO1 [4]): 0.334
B1: B5209B mouse-scFv-mcSA414 (protein)
chain: MAEVQLVESGGGVVQPGGSLKLSCAASGFTFSTYDMSWVRQTPDKRLELVATINSNGGSTYYPDSVKGRFTSSRDNAKNILYLQMSSLKSEDTAMYYCAREALLRPPYYALDYWGQGTSVTVSSAGGGGSGGGGSGGGGSDILDIQMTQSPASLSASVGETVTITCGASENIYGALTWYQRKQGKSPQLLIYGAINLADDKSSRFSGSGSGRQYSLKISSLHPDDVATYYCQNVLSTPFTFGSGTKLEIKAAGSSGSGSAAEAGITGTWSNQLGSTFIVTAGADGALTGTYESAVGNAESRYVLTGRYDSAPATDGSGTALGWTVAWKNNSKNAHSATTWSGQYVGGADAKINTQWLLTSGTTQANAWKSTLVGHDTFTKVKPSAASGARHHHHHH
